Laboratory results: publication PMC5957528, “Boosting ATM activity alleviates aging and extends lifespan in a mouse model of progeria” (eLife, 2018)
One block for each molecule: values may come before it.

Tests used:
[1] = molecular target: SIRT6 (UniProt Q8N6T7); assay: anti-HA co-IP, ATM immunoblot; details: reference: Flag-ATM wild type; sites S1981
[2] = molecular target: MDM2 (UniProt Q00987); assay: anti-Flag co-IP, MDM2 immunoblot; details: reference: Flag-SIRT6 wild type; sites S112
[3] = molecular target: T1, His-SIRT6 (human, UniProt Q8N6T7 1-355); assay: pull-down; GST pull-down: bacterially expressed 6 × His SIRT6 incubated separately with GST-ATM fragments in 150 mM NaCl, 20 mM Tris-HCl pH 7.5, 5 mM MgCl2, 0.2 mM EDTA, 10% glycerol, 0.2% NP-40; Glutathione Sepharose; washed with TEN buffer (300 mM NaCl); details: both partners purified
T1 construct: SIRT6, human; also called 6 × His tagged SIRT6; purified His-SIRT6; source: bacterially expressed, purified
T1 sequence (Q8N6T7 whole entry, the tested form may be a part): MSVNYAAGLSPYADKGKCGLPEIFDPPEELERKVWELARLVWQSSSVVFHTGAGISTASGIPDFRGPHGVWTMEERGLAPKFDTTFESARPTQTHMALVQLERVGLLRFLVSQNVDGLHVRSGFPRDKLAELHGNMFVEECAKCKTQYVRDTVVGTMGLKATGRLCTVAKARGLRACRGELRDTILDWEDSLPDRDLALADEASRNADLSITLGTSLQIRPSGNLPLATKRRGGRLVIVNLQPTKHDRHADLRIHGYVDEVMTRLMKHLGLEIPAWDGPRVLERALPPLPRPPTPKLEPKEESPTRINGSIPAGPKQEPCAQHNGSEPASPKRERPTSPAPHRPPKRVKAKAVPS

- binding against the reference [1]: lost
Molecule: ATM (from UniProt Q13315) Flag-ATM S1981A

- binding against the reference [2]: stronger
Molecule: SIRT6 (from UniProt Q8N6T7) Flag-SIRT6 S112A

- binding result [3]: binds
B1: GST-ATM-4 (residues 770–1102) (domain or fragment, human, UniProt Q13315 770-1102, looked up)
chain: EFRIGSLRNMMQLCTRCLSNCTKKSPNKIASGFFLRLLTSKLMNDIADICKSLASFIKKPFDRGEVESMEDDTNGNLMEVEDQSSMNLFNDYPDSSVSDANEPGESQSTIGAINPLAEEYLSKQDLLFLDMLKFLCLCVTTAQTNTVSFRAADIRRKLLMLIDSSTLEPTKSLHLHMYLMLLKELPGEEYPLPMEDVLELLKPLSNVCSLYRRDQDVCKTILNHVLHVVKNLGQSNMDSENTRDAQGQFLTVIGAFWHLTKERKYIFSVRMALVNCLKTLLEADPYSKWAILNVMGKDFPVNEVFTQFLADNHHQVRMLAAESINRLFQDTKG
notes: source: recombinant GST fusion (pGEX4T-3 vector)
